# Columns and labels:
# [1] = tested on: Gal4(1-147) (Saccharomyces cerevisiae); assay: ensemble FRET titration; conditions: FRET (Gal4): 130 mM NaCl, 10 mM Tris-HCl pH 8, 0.01% Tween 20, 10% glycerol, 0.5 nM substrate, PIFE (LexA): 130 mM NaCl, 10 mM Tris pH 8, 10% glycerol, 0.005% …
# LexA = assay: PIFE titration; conditions: FRET (Gal4): 130 mM NaCl, 10 mM Tris-HCl pH 8, 0.01% Tween 20, 10% glycerol, 0.5 nM substrate, PIFE (LexA): 130 mM NaCl, 10 mM Tris pH 8, 10% glycerol, 0.005% …
substance,measurement,setting,value
601-Gal4-S hexasome (H2A-H2B proximal to Gal4 site),K half,"[1]; hexasome, dimer-proximal site, smFRET kon 0.0052 s-1 nM-1, koff 0.37 s-1",47 nM
601-Gal4-S nucleosome,K half,"[1]; nucleosome, smFRET kon 0.011 s-1 nM-1, koff 0.32 s-1",19.6 nM
601-LexA-W hexasome (H2A-H2B distal LexA site),K half,"LexA; hexasome, dimer-distal site",0.25 nM
DNA-LexA,K half,"LexA; naked DNA, Cy5-aminoC6-dT internal in reverse strand",0.3 nM
